Assay results as given in patent US20210380702A1 (Regeneron, published 2021).
Substitutions are numbered along the chain they refer to. Values belong to the binder of their own block, whether it stands above or below them.

Assays:
[1] = target: T1, recombinant human PD-L1 (amino acids 19-239 of NP_054862.1) with a C-terminal myc-myc-hexahistidine tag (human); assay: SPR (Biacore), mAb captured, 37C
T1 construct: also called hPD-L1-MMH; hPD-L1-MMH Monomer
Description: (§1) Binding association and dissociation rate constants (kₐ and kd, respectively), equilibrium dissociation constants and dissociation half-lives (KD and t_{1/2}, respectively) of antigen binding to purified anti-PD-L1 monoclonal antibodies were determined using a real-time surface plasmon resonance biosensor assay on a Biacore 4000 instrument. The Biacore sensor surface was either derivatized with polyclonal rabbit anti-mouse antibody (GE, #BR-1008-38) or with monoclonal mouse anti-human Fc antibody (GE, #BR-1008-39) to capture approximately 200-300 RUs of anti-PD-L1 monoclonal antibodies, expressed with either a mouse Fc or with human Fc, respectively. […] Different concentrations of PD-L1 reagents were injected over the anti-PD-L1 monoclonal antibody captured surface at a flow rate of 30 μL/min. The binding of the PD-L1 reagents to the captured monoclonal antibodies was monitored for 3 to 4 minutes while the dissociation of antibody bound PD-L1 reagents was monitored for 10 minutes in HBST running buffer (0.01 M HEPES pH 7.4, 0.15 M NaCl, 3 mM EDTA, 0.05% v/v Surfactant tween-20). Experiments were performed at either 25° C. or 37° C. Kinetic association (kₐ) and dissociation (kd) rate constants were determined by processing and fitting the data to a 1:1 binding model using Scrubber 2.0c curve fitting software. Binding dissociation equilibrium constants (KD) and dissociative half-lives (t_{1/2}) were then calculated from the kinetic rate constants as: KD (M)=kd/kₐ and t_{1/2} (min)=[In2/(60*kd)].

[2] = target: T2, recombinant cynomolgus monkey PD-L1 with a C-terminal myc-myc-hexahistidine tag (cynomolgus monkey (Macaca fascicularis)); assay: SPR (Biacore), mAb captured, 37C
T2 construct: also called MfPD-L1-MMH; MfPD-L1-MMH Monomer
Description: as §1

[3] = target: T3, Human PD-L1 Dimer (human, UniProt Q9NZQ7 19-239); assay: SPR (Biacore), mAb captured, 37C
T3 construct: also called hPD-L1 dimer; hPD-L1-hFc
Description: as §1

[4] = target: T2, recombinant cynomolgus monkey PD-L1 …; assay: SPR (Biacore), mAb captured, 25C
Description: as §1

[5] = target: T3, Human PD-L1 Dimer; assay: SPR (Biacore), mAb captured, 25C
Description: as §1

[6] = target: T4, recombinant cynomolgus monkey PD-L1 with a C-terminal mouse IgG2a Fc tag (cynomolgus monkey (Macaca fascicularis)); assay: SPR (Biacore), mAb captured, 25C
T4 construct: also called MfPD-L1-mFc; monkey PD-L1-mFc
Description: as §1

T4 sequence (chain, as listed by the source limits assumed): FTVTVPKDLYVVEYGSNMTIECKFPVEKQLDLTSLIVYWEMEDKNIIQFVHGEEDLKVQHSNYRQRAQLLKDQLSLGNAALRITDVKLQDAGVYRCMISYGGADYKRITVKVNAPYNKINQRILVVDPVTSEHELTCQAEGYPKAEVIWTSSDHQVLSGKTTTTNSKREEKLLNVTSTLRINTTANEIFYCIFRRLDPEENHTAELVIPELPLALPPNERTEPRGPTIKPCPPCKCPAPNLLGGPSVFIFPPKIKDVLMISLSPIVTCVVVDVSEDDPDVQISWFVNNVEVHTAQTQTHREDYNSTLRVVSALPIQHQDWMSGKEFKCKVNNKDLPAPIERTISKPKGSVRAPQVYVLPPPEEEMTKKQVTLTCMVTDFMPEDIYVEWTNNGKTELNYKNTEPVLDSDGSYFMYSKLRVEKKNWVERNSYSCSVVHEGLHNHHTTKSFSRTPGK
T1 sequence (chain, as listed by the source limits assumed): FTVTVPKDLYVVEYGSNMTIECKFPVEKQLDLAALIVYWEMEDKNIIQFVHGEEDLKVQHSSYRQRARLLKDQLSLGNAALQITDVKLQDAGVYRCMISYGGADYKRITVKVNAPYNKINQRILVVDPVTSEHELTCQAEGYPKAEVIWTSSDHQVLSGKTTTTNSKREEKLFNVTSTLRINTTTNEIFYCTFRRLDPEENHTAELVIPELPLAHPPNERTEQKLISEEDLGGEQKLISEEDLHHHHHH
T3 sequence (Q9NZQ7 19-239): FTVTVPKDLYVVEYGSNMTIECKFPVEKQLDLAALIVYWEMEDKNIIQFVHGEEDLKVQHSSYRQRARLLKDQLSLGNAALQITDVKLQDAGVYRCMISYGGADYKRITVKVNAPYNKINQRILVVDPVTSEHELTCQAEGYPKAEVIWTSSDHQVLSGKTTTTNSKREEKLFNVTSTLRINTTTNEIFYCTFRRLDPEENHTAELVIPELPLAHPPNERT
T2 sequence (chain, as listed by the source limits assumed): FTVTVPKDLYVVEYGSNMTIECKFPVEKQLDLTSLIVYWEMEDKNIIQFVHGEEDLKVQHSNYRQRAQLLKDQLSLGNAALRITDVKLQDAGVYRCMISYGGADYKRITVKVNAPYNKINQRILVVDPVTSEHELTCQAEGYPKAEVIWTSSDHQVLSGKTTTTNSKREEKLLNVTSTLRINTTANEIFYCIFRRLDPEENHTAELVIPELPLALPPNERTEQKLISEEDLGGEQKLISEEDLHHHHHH

Kd [1]: 29.7 nM
koff [1]: 0.0314 s⁻¹
kon [1]: 1.06e+06 M⁻¹ s⁻¹
t1/2 [1]: 0.4 min
Kd [2]: 26.3 nM
koff [2]: 0.0281 s⁻¹
kon [2]: 1.07e+06 M⁻¹ s⁻¹
t1/2 [2]: 0.4 min
Kd [3]: 0.0376 nM
koff [3]: 0.000166 s⁻¹
kon [3]: 4.41e+06 M⁻¹ s⁻¹
t1/2 [3]: 70 min
Kd [4]: 14.9 nM
koff [4]: 0.013 s⁻¹
kon [4]: 870000 M⁻¹ s⁻¹
t1/2 [4]: 0.9 min
Kd [5]: 0.0429 nM
koff [5]: 0.000144 s⁻¹
kon [5]: 3.36e+06 M⁻¹ s⁻¹
t1/2 [5]: 80 min
B1: H2aM8309N (antibody, mouse IgG2, V domains shown)
VH: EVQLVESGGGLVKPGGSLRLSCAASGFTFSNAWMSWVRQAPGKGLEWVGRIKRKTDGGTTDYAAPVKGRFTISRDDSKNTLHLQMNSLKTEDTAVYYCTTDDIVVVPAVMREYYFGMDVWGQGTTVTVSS
VL: DIQMTQSPSSLSASVGDRVTITCRTSQGIRNDLGWYQQKPGKAPKRLIYAASSLQSGVPSRFSGSGSGTEFTLTISSLQPEDFATYYCLQHNNYPYTFGQGTKLEIK
notes: also called H2M8309N

Kd [1]: 117 nM
koff [1]: 0.329 s⁻¹
kon [1]: 2.82e+06 M⁻¹ s⁻¹
t1/2 [1]: 0.04 min
Kd [2]: 137 nM
koff [2]: 0.364 s⁻¹
kon [2]: 2.66e+06 M⁻¹ s⁻¹
t1/2 [2]: 0.03 min
Kd [3]: 0.689 nM
koff [3]: 0.00267 s⁻¹
kon [3]: 3.87e+06 M⁻¹ s⁻¹
t1/2 [3]: 4.3 min
Kd [6]: 0.386 nM
koff [6]: 0.000672 s⁻¹
kon [6]: 1.74e+06 M⁻¹ s⁻¹
t1/2 [6]: 17 min
Kd [4]: 76.9 nM
koff [4]: 0.135 s⁻¹
kon [4]: 1.76e+06 M⁻¹ s⁻¹
t1/2 [4]: 0.09 min
Kd [5]: 0.259 nM
koff [5]: 0.000768 s⁻¹
kon [5]: 2.97e+06 M⁻¹ s⁻¹
t1/2 [5]: 15 min
B2: H1H9329P (antibody, human IgG1, V domains shown)
VH: EVQLVESGGGLVQSGGSLRLSCAASGFTFSSYWMSWVRQAPGKGLEWVANIKQDGSEKYYVDSVKGRFTISRDNAKNSLYLQMNSLRADDTAVYYCARDDIVVVPAPMGYYYYYFGMDVWGQGTTVTVSS
VL: B1 VL with T25A, N93S

Kd [1]: 91.6 nM
koff [1]: 0.00929 s⁻¹
kon [1]: 101000 M⁻¹ s⁻¹
t1/2 [1]: 1.2 min
Kd [2]: 51.1 nM
koff [2]: 0.00816 s⁻¹
kon [2]: 159000 M⁻¹ s⁻¹
t1/2 [2]: 1.4 min
Kd [3]: 0.285 nM
koff [3]: 0.000269 s⁻¹
kon [3]: 946000 M⁻¹ s⁻¹
t1/2 [3]: 43 min
Kd [4]: 29.9 nM
koff [4]: 0.00402 s⁻¹
kon [4]: 134000 M⁻¹ s⁻¹
t1/2 [4]: 2.9 min
Kd [5]: 0.353 nM
koff [5]: 0.000287 s⁻¹
kon [5]: 813000 M⁻¹ s⁻¹
t1/2 [5]: 40 min
B4: H2aM8321N (antibody, mouse IgG2, V domains shown)
VH: EERLVESGGDLVQPGGSLRLSCAASGITVGTNYMNWVRQAPGKGLEWVSVISSGGNTHYADSVKGRFIMSRQTSKNTLYLQMNSLETEDTAVYYCARGIRGLDVWGQGTMVTVSS
VL: DIQMTQSPSSLSASVGDRVTITCRASQSMSSYLNWYQQKPGRAPKLLIFAASSLQSGVPSRFSGSGSGTDFTLTISSLQPEDFATYYCQQSYSTPPITFGQGTRLEIK
notes: also called H2M8321N

Kd [6]: 0.0263 nM
koff [6]: 6.77e-05 s⁻¹
kon [6]: 2.58e+06 M⁻¹ s⁻¹
t1/2 [6]: 171 min
B6: H1H8314N (antibody, human IgG1, V domains shown)
VH: EVQLVESGGGVVRPGGSLRLSCAASGFTFDDYGMTWVRQAPGRGLEWVSGIHWHGKRTGYADSVKGRFTISRDNAKKSLYLQMNSLKGEDTALYHCVRGGMSTGDWFDPWGQGTLVIVSS
VL: B4 VL with V15L, M29I, S30N, R42K, F49Y, A50V, D70E, S77N

Kd [6]: 0.0231 nM
koff [6]: 6.16e-05 s⁻¹
kon [6]: 2.67e+06 M⁻¹ s⁻¹
t1/2 [6]: 188 min
B9: H1H8323N (antibody, human IgG1, V domains shown)
VH: QVQLVQSGAEVKMPGSSVRVSCKASGGIFSSSTISWVRQAPGQGLEWMGEIIPVFGTVNYAQKFQDRVIFTADESTTTAYMELSSLKSGDTAVYFCARNWGLGSFYIWGQGTMVTVSS
VL: EIVLTQSPGTLSLSPGERATLSCRASQSFNFNYLAWYQQKPGQAPRLLIYGASSRATGIPDRFSGSGSGTDFTLTINRLEPEDFGVFYCQQYESAPWTFGQGTKVEIK

Kd [1]: 9.7 nM
koff [1]: 0.00128 s⁻¹
kon [1]: 132000 M⁻¹ s⁻¹
t1/2 [1]: 9 min
Kd [2]: 2.27 nM
koff [2]: 0.00107 s⁻¹
kon [2]: 471000 M⁻¹ s⁻¹
t1/2 [2]: 11 min
Kd [3]: 0.258 nM
koff [3]: 0.000124 s⁻¹
kon [3]: 481000 M⁻¹ s⁻¹
t1/2 [3]: 93 min
Kd [4]: 2.97 nM
koff [4]: 0.000306 s⁻¹
kon [4]: 103000 M⁻¹ s⁻¹
t1/2 [4]: 38 min
Kd [5]: 0.183 nM
koff [5]: 5.71e-05 s⁻¹
kon [5]: 313000 M⁻¹ s⁻¹
t1/2 [5]: 202 min
B10: H2aM8310N (antibody, mouse IgG2, V domains shown)
VH: QVQLVQSGAEVKKPGASVQVSCKASGYSFTGYYIHWVRQAPGQGLEWMGWINPNSGTKKYAHKFQGRVTMTRDTSIDTAYMILSSLISDDTAVYYCARDEDWNFGSWFDSWGQGTLVTVSS
VL: DIVMTQTPLSSPVTLGQPASISCRSSQTLVHGDGNTYLSWIQQRPGQPPRLLIYKVSNQFSGVPDRFSGSGAGTDFTLKISRVEAEDVGLYFCMQATHFPITFGQGTRLEIK
notes: also called H2M8310N

More lines, now with the values behind:

B3: H2aM8314N (antibody, mouse IgG2, V domains shown)
VH: B6 VH
VL: B4 VL with V15L, M29I, S30N, R42K, F49Y, A50V, D70E, S77N
notes: also called H2M8314N
Kd [1]: 0.14 nM
koff [1]: 0.00015 s⁻¹
kon [1]: 1.07e+06 M⁻¹ s⁻¹
t1/2 [1]: 77 min
Kd [2]: 0.142 nM
koff [2]: 0.000152 s⁻¹
kon [2]: 1.07e+06 M⁻¹ s⁻¹
t1/2 [2]: 76 min
Kd [3]: 0.00591 nM
koff [3]: 2.3e-05 s⁻¹
kon [3]: 3.89e+06 M⁻¹ s⁻¹
t1/2 [3]: 503 min
Kd [4]: 0.0724 nM
koff [4]: 7e-05 s⁻¹
kon [4]: 966000 M⁻¹ s⁻¹
t1/2 [4]: 165 min
Kd [5]: 0.00426 nM
koff [5]: 1.35e-05 s⁻¹
kon [5]: 3.16e+06 M⁻¹ s⁻¹
t1/2 [5]: 859 min

B5: H2aM8317N (antibody, mouse IgG2, V domains shown)
VH: EVQLVESGGGLVQPGGSLRLSCAASGFTVGSNYMNWVRQAPGKGLEWVSVIYSGGSTYYADSVKGRFTISRLTSKNTLYLQMSSLRPEDTAVYYCARGIRGLDVWGQGTTVTVSS
VL: B4 VL with S28T, M29I, S30N, S31I, K45R, F49Y, Q89H
notes: also called H2M8317N
Kd [1]: 647 nM
koff [1]: 0.0585 s⁻¹
kon [1]: 90300 M⁻¹ s⁻¹
t1/2 [1]: 0.2 min
Kd [2]: 179 nM
koff [2]: 0.0476 s⁻¹
kon [2]: 266000 M⁻¹ s⁻¹
t1/2 [2]: 0.2 min
Kd [3]: 1.36 nM
koff [3]: 0.000657 s⁻¹
kon [3]: 481000 M⁻¹ s⁻¹
t1/2 [3]: 18 min
Kd [4]: 226 nM
koff [4]: 0.0238 s⁻¹
kon [4]: 106000 M⁻¹ s⁻¹
t1/2 [4]: 0.5 min
Kd [5]: 1.25 nM
koff [5]: 0.00045 s⁻¹
kon [5]: 359000 M⁻¹ s⁻¹
t1/2 [5]: 26 min

B7: H2aM8312N (antibody, mouse IgG2, V domains shown)
VH: QVHLVQSGAEVKKPGASVKVSCKASGYTFTGYYIHWVRQAPGHGLEWMGWLNPNTGTTKYIQNFQGRVTMTRDTSSSTAYMELTRLRSDDTAVYYCARDEDWNYGSWFDTWGQGTLVTVSS
VL: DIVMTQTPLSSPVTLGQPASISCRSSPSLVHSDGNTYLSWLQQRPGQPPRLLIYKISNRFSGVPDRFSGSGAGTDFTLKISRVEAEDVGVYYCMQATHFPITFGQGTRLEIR
notes: also called H2M8312N
Kd [1]: 45.3 nM
koff [1]: 0.00403 s⁻¹
kon [1]: 88900 M⁻¹ s⁻¹
t1/2 [1]: 2.9 min
Kd [2]: 32.7 nM
koff [2]: 0.00332 s⁻¹
kon [2]: 101000 M⁻¹ s⁻¹
t1/2 [2]: 3.5 min
Kd [3]: 0.732 nM
koff [3]: 0.000261 s⁻¹
kon [3]: 357000 M⁻¹ s⁻¹
t1/2 [3]: 44 min
Kd [4]: 8.42 nM
koff [4]: 0.000597 s⁻¹
kon [4]: 70900 M⁻¹ s⁻¹
t1/2 [4]: 19 min
Kd [5]: 0.413 nM
koff [5]: 0.000102 s⁻¹
kon [5]: 247000 M⁻¹ s⁻¹
t1/2 [5]: 113 min

B8: H2aM8323N (antibody, mouse IgG2, V domains shown)
VH: B9 VH
VL: B9 VL
notes: also called H2M8323N
Kd [1]: 0.497 nM
koff [1]: 0.000684 s⁻¹
kon [1]: 1.38e+06 M⁻¹ s⁻¹
t1/2 [1]: 17 min
Kd [2]: 29.5 nM
koff [2]: 0.0282 s⁻¹
kon [2]: 956000 M⁻¹ s⁻¹
t1/2 [2]: 0.4 min
Kd [3]: 0.028 nM
koff [3]: 0.000121 s⁻¹
kon [3]: 4.32e+06 M⁻¹ s⁻¹
t1/2 [3]: 96 min
Kd [4]: 15.9 nM
koff [4]: 0.00868 s⁻¹
kon [4]: 547000 M⁻¹ s⁻¹
t1/2 [4]: 1.3 min
Kd [5]: 0.00704 nM
koff [5]: 2.05e-05 s⁻¹
kon [5]: 2.91e+06 M⁻¹ s⁻¹
t1/2 [5]: 565 min
